In series [1] the target is T1, PDGF (platelet derived growth factor) (Homo sapiens, UniProt P01127 P01127:82-190). Briefly: competition; no change in beacon fluorescence; 100 nM aptamer, PBSM, 4 uM tRNA, 37 C. The conditions noted are these: chain copies: 2. On the procedure:
Specificity of Nucleic Acid Ligand Interaction with Target in the Presence of Ligand Beacon In the previous examples, a concentration-dependent signal reduction was observed when the target was added. This should not be observed when the wrong target protein is added. This point is illustrated in FIG. 7, where TAQ-nucleic acid ligand (100 nM) was mixed with increasing concentrations of PDGF in PBSM buffer containing 4 μM tRNA at 37° C. for 10 min. Then 110 nM TAQ-ligand beacon was added, incubated for an additional 10 min at the same temperature and fluorescence was measured.

Series [2] deals with T1, PDGF (platelet derived growth factor). Put plainly: competition; ligand beacon (SEQ ID NO:2) fluorescence decreases with PDGF; 100 nM aptamer, PBSM (1 mM MgCl2), 4 uM tRNA, 30 C; also in human plasma at 37 C. The conditions noted are these: chain copies: 2. On the procedure: The PDGF ligand beacon was used in an assay in which 100 nM PDGF nucleic acid ligand above was mixed with an increasing concentration of PDGF for 10 minutes at 30° C. […] in PBSM buffer containing 4 µM tRNA. Then, 100 nM PDGF ligand beacon was added and the mixture was incubated for 10 minutes at 30° C. A measurement of fluorescein emission at 530 nm was made for each concentration of PDGF using 488 nm monochromatic laser light for excitation in a 96 well format Vistra Fluorimager SI. […] This is the expected result, because as the concentration of PDGF increases, the concentration of PDGF nucleic acid ligand that is not bound to PDGF decreases. Thus, there is a smaller pool of PDGF nucleic acid ligand for the PDGF ligand beacon to hybridize to.

T1 sequence (P01127 82-190, one chain of several): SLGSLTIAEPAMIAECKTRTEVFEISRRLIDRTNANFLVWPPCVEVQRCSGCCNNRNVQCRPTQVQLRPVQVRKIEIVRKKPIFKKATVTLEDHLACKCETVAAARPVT

B1: TAQ nucleic acid ligand (ssDNA)
DNA: TGGCGGAGCGATCATCTCAGAGCATTCTTAGCGTTTTGTTCTTGTGTATGA
For the molecule B1, in series [1], the binding result is on record as “no binding”.

As for TGGGAGGGCGCGTTCTTCGTGGTTACTTTTAGTCCCGT (ssDNA) [PDGF nucleic acid ligand], in series [2], the binding result is “binds”.

The values above are taken from patent publication US5989823, “Homogeneous detection of a target through nucleic acid ligand-ligand beacon interaction” (NeXstar Pharmaceuticals, Inc.).
